Test results as given in article doi:10.1101/790931, “Pal stabilises the bacterial outer membrane during constriction by a mobilisation-and-capture mechanism” (bioRxiv, 2019).
No end group written: not given here.

Molecular target: T1, C-terminal domain of Pseudomonas aeruginosa TolA (TolA^224-347) (Pseudomonas aeruginosa, UniProt P50600 224-347)
T1 construct: TolA, Pseudomonas aeruginosa, C-terminal domain, residues 224-347; Uniformly 15N- or 13C/15N-labelled for the NMR experiments, unlabelled for fluorescence anisotropy; also called wild-type TolA (residues 224-347); C-terminal domain of TolA; not shown: His tag, N-terminal, cleaved; Im9, N-terminal, cleaved
T1 sequence (looked up): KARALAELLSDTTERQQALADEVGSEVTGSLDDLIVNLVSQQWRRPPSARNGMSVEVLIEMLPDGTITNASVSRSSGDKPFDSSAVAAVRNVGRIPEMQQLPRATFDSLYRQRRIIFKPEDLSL
Assay: NMR titration; TolB peptide added to 0.6 mM 15N-labelled TolA; 1H,15N-HSQC; 20 mM phosphate, 100 mM NaCl, pH 7.6; slow exchange, ratio of bound and free peak volumes; fits for Ser271, Ser306, Gly316, Leu347
Settings: both partners purified

B1: P. aeruginosa TolB[22-34] peptide (the TolA box) (peptide)
peptide: ADPLVISSGNDRA-NH2
notes: TolB, Pseudomonas aeruginosa, residues 22-34, the N-terminus of secreted TolB; also called TolB[22-33]; (in supplementary legends); N-terminus of TolB; source: synthetic peptide (thinkpeptides UK (ProImmune))
- Kd: 220 µM
